Experimental findings from patent publication US20240336680A1 are described below.

In assay [1] the target is human CLDN18.2 (isoform 2 of claudin-18), full length, expressed on CHO cells (human) (UniProt P56856). Kind of assay: FACS, serial dilutions on CHO cells expressing human CLDN18.2.
Assay [2] has the same target. Kind of assay: FACS titration on CHO/CLDN18.2 cells, 0.00001 to 100 ug/mL.

Substitutions are numbered along the chain they refer to.

B1: Chimeric T252S4 H/L (antibody, human IgG1, V domains shown)
VH: EVQLQQSGPELVKPGASMKISCKASGYSFTGYNMNWVKQTHGKNLEWIGLINPYNGGTRYNQKFKGKATLTVDKSSSTAYMELLSLTSEDSAVYFCARMGLGNAMDYWGQGTSVTVSS
VL: DIVMTQSPSSLTVTAGEKVTMSCKSSQNLLNSGNQKNYLTWYQQKPGQPPKLLIYWASTMESGVPDRFTGSGSGTDFTLTISSVQAEDLAVYYCQNDYIYPLPFGAGTKLELK
For B1, the EC50 in assay [1] stood at 1 µg/mL.

B2: HuT252S4 H3/L1 (antibody, V domains shown)
VH: EVQLVQSGAEVKKPGESLKISCKGSGYSFTGYNMNWVRQMPGKNLEWIGLINPYNGGTRYNQKFKGKATLSVDKSISTAYLQWSSLKASDTAMYFCARMGLGNAMDYWGQGTTVTVSS
VL: DIVMTQSPDSLAVSLGERATINCKSSQNLLNSGNQKNYLTWYQQKPGQPPKLLIYWASTMESGVPDRFSGSGSGTDFTLTISSLQAEDVAVYYCQNDYIYPLPFGQGTKLEIK
In turn, B2 gave an EC50 (read off the curve) in assay [2] of 1 µg/mL.

B3: HuT252S4 H3/L2 (antibody, V domains shown)
VH: B2 VH
VL: B2 VL with N31Q, M60R
B3 gave an EC50 (read off the curve) in assay [2] of 1 µg/mL.

One may read the EC50 as the concentration giving half of the maximal effect. In general, EC50 (read off the curve) refers to the concentration that produces a half-maximal response. Lower therefore signals an effect from little substance.
